Source: US20230242651A1 (published 2023)

T1: human interleukin-23 receptor (IL23R) (human, UniProt Q5VWK5 24-355, limits assumed)
T1 construct: also called human IL23R
T1 sequence (looked up): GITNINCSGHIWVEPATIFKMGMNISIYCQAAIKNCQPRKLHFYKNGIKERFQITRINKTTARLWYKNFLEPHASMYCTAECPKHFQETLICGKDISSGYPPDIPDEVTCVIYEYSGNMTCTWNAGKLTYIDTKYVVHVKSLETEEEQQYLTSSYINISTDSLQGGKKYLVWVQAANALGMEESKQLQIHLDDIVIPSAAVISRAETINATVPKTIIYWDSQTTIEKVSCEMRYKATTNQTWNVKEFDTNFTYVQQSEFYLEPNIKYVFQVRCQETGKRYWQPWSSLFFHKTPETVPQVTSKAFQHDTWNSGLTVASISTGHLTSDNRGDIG


Key:
[1] = molecular target: T1, human interleukin-23 receptor (IL23R); assay: SPR, scFv
Outline: (§1)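 Humanized rabbit variable domains were built as single-chain variable fragments (scFv) on consensus germline framework pairs, some carrying a λ-cap in which Vκ framework IV was replaced by a Vλ germline sequence. These were expressed in E. coli as inclusion bodies, then solubilized and refolded in a generic refolding buffer. Affinity for human IL23R was determined by surface plasmon resonance and reported as rate constants and dissociation constant, or as the ratio of the λ-capped to uncapped dissociation constant.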

[2] = molecular target: T1, human interleukin-23 receptor (IL23R); assay: SPR, scFv (summary table)
Outline: as §1

[3] = molecular target: T1, human interleukin-23 receptor (IL23R); assay: SPR; KD of the capped scFv over KD of its uncapped counterpart
Outline: as §1

Row | Kd [1] [pM] | koff [1] [s⁻¹] | kon [1] [M⁻¹ s⁻¹] | Kd [2] [pM] | Ratio (capped/uncapped) of KD [3] | Binder
1 | 199 | 0.000478 | 2.4e+06 | 199 | 1.2 | Vκ1/VH1B consensus λ-capped, human IL23R specific scFv (scFv, scFv VL-linker-VH, made in E. coli; also called Vκ1VH1B capped) scFv: DIQMTQSPSSLSASVGDRVTITCQASENIYSFLAWYQQKPGKAPKLLIYSASKLAAGVPSRFSGSGSGTDFTLTISSLQPEDFATYYCQQTNRYSNPDIYNVFGGGTKLTVLGGGGGSGGGGSGGGGSGGGGSQVQLVQSGAEVKKPGASVKVSCKASGIDFNSNYYMCWVRQAPGQGLEWMGCIYVGSHVNTYYANWAKGRVTMTRDTSISTAYMELSSLRSEDTAVYYCATSGSSVLYFKFWGQGTLVTVSS
2 | 3240 | 0.000288 | 88700 | 3240 |  | Vκ2/VH6 consensus (uncapped), human IL23R specific scFv (scFv, scFv VL-linker-VH, made in E. coli; Vκ framework IV (uncapped, full consensus); also called Vκ2VH6 uncapped) scFv: DIVMTQSPLSLPVTPGEPASISCQASENIYSFLAWYLQKPGQSPQLLIYSASKLAAGVPDRFSGSGSGTDFTLKISRVEAEDVGVYYCQQTNRYSNPDIYNVFGQGTKVEIKRGGGGSGGGGSGGGGSGGGGSQVQLQQSGPGLVKPSQTLSLTCAISGIDFNSNYYMCWIRQSPGRGLEWLGCIYVGSHVNTYYANWAKGRITINPDTSKNQFSLQLNSVTPEDTAVYYCATSGSSVLYFKFWGQGTLVTVSS
3 | 45.5 | 0.000191 | 4.2e+06 | 45.5 | 0.5 | Vκ1/VH4 consensus λ-capped, human IL23R specific scFv (scFv, scFv VL-linker-VH, made in E. coli; also called Vκ1VH4 capped) scFv: DIQMTQSPSSLSASVGDRVTITCQASENIYSFLAWYQQKPGKAPKLLIYSASKLAAGVPSRFSGSGSGTDFTLTISSLQPEDFATYYCQQTNRYSNPDIYNVFGGGTKLTVLGGGGGSGGGGSGGGGSGGGGSQVQLQESGPGLVKPSETLSLTCTVSGIDFNSNYYMCWIRQPPGKGLEWIGCIYVGSHVNTYYANWAKGRVTISVDTSKNQFSLKLSSVTAADTAVYYCATSGSSVLYFKFWGQGTLVTVSS
4 | 123 | 0.000288 | 2.35e+06 | 123 | 0.9 | Vκ3/VH4 consensus λ-capped, human IL23R specific scFv (scFv, scFv VL-linker-VH, made in E. coli; also called Vκ3VH4 capped) scFv: DIVLTQSPATLSLSPGERATLSCQASENIYSFLAWYQQKPGQAPRLLIYSASKLAAGVPARFSGSGSGTDFTLTISSLEPEDFAVYYCQQTNRYSNPDIYNVFGGGTKLTVLGGGGGSGGGGSGGGGSGGGGSQVQLQESGPGLVKPSETLSLTCTVSGIDFNSNYYMCWIRQPPGKGLEWIGCIYVGSHVNTYYANWAKGRVTISVDTSKNQFSLKLSSVTAADTAVYYCATSGSSVLYFKFWGQGTLVTVSS
5 | 864 | 0.0013 | 1.5e+06 | 864 | 1.6 | Vκ3/VH5 consensus λ-capped, human IL23R specific scFv (scFv, scFv VL-linker-VH, made in E. coli; also called Vκ3VH5 capped) scFv: DIVLTQSPATLSLSPGERATLSCQASENIYSFLAWYQQKPGQAPRLLIYSASKLAAGVPARFSGSGSGTDFTLTISSLEPEDFAVYYCQQTNRYSNPDIYNVFGGGTKLTVLGGGGGSGGGGSGGGGSGGGGSEVQLVQSGAEVKKPGESLKISCKGSGIDFNSNYYMCWVRQMPGKGLEWMGCIYVGSHVNTYYANWAKGQVTISADKSISTAYLQWSSLKASDTAMYYCATSGSSVLYFKFWGQGTLVTVSS
6 | 297 | 0.000479 | 1.61e+06 | 297 |  | Vκ3/VH1A consensus (uncapped), human IL23R specific scFv (scFv, scFv VL-linker-VH, made in E. coli; Vκ framework IV (uncapped, full consensus); also called Vκ3VH1A uncapped) scFv: DIVLTQSPATLSLSPGERATLSCQASENIYSFLAWYQQKPGQAPRLLIYSASKLAAGVPARFSGSGSGTDFTLTISSLEPEDFAVYYCQQTNRYSNPDIYNVFGQGTKVEIKRGGGGSGGGGSGGGGSGGGGSQVQLVQSGAEVKKPGSSVKVSCKASGIDFNSNYYMCWVRQAPGQGLEWMGCIYVGSHVNTYYANWAKGRVTITADESTSTAYMELSSLRSEDTAVYYCATSGSSVLYFKFWGQGTLVTVSS
7 | 13.7 | 5.43e-05 | 3.95e+06 | 13.7 | 0.4 | Vκ1/VH3 consensus λ-capped, human IL23R specific scFv (scFv, scFv VL-linker-VH, made in E. coli; also called Vκ1VH3 capped) scFv: DIQMTQSPSSLSASVGDRVTITCQASENIYSFLAWYQQKPGKAPKLLIYSASKLAAGVPSRFSGSGSGTDFTLTISSLQPEDFATYYCQQTNRYSNPDIYNVFGGGTKLTVLGGGGGSGGGGSGGGGSGGGGSEVQLVESGGGLVQPGGSLRLSCAASGIDFNSNYYMCWVRQAPGKGLEWVSCIYVGSHVNTYYANWAKGRFTISRDNSKNTLYLQMNSLRAEDTAVYYCATSGSSVLYFKFWGQGTLVTVSS
8 | 22 | 6.38e-05 | 2.89e+06 | 22 | 0.6 | Vκ3/VH3 consensus λ-capped, human IL23R specific scFv (scFv, scFv VL-linker-VH, made in E. coli; also called Vκ3VH3 capped) scFv: DIVLTQSPATLSLSPGERATLSCQASENIYSFLAWYQQKPGQAPRLLIYSASKLAAGVPARFSGSGSGTDFTLTISSLEPEDFAVYYCQQTNRYSNPDIYNVFGGGTKLTVLGGGGGSGGGGSGGGGSGGGGSEVQLVESGGGLVQPGGSLRLSCAASGIDFNSNYYMCWVRQAPGKGLEWVSCIYVGSHVNTYYANWAKGRFTISRDNSKNTLYLQMNSLRAEDTAVYYCATSGSSVLYFKFWGQGTLVTVSS

More lines, now with the values behind:

Row | Binder | Kd [1] [pM] | koff [1] [s⁻¹] | kon [1] [M⁻¹ s⁻¹] | Kd [2] [pM] | Ratio (capped/uncapped) of KD [3]
9 | Vκ1/VH5 consensus λ-capped, human IL23R specific scFv (scFv, scFv VL-linker-VH, made in E. coli; also called Vκ1VH5 capped) scFv: DIQMTQSPSSLSASVGDRVTITCQASENIYSFLAWYQQKPGKAPKLLIYSASKLAAGVPSRFSGSGSGTDFTLTISSLQPEDFATYYCQQTNRYSNPDIYNVFGGGTKLTVLGGGGGSGGGGSGGGGSGGGGSEVQLVQSGAEVKKPGESLKISCKGSGIDFNSNYYMCWVRQMPGKGLEWMGCIYVGSHVNTYYANWAKGQVTISADKSISTAYLQWSSLKASDTAMYYCATSGSSVLYFKFWGQGTLVTVSS | 398 | 0.000671 | 1.69e+06 | 398 | 1.7
10 | Vκ1/VH1A consensus λ-capped, human IL23R specific scFv (scFv, scFv VL-linker-VH, made in E. coli; also called Vκ1VH1A capped) scFv: DIQMTQSPSSLSASVGDRVTITCQASENIYSFLAWYQQKPGKAPKLLIYSASKLAAGVPSRFSGSGSGTDFTLTISSLQPEDFATYYCQQTNRYSNPDIYNVFGGGTKLTVLGGGGGSGGGGSGGGGSGGGGSQVQLVQSGAEVKKPGSSVKVSCKASGIDFNSNYYMCWVRQAPGQGLEWMGCIYVGSHVNTYYANWAKGRVTITADESTSTAYMELSSLRSEDTAVYYCATSGSSVLYFKFWGQGTLVTVSS | 166 | 0.000616 | 3.71e+06 | 166 | 8.3
11 | Vκ2/VH1A consensus λ-capped, human IL23R specific scFv (scFv, scFv VL-linker-VH, made in E. coli; also called Vκ2VH1A capped) scFv: DIVMTQSPLSLPVTPGEPASISCQASENIYSFLAWYLQKPGQSPQLLIYSASKLAAGVPDRFSGSGSGTDFTLKISRVEAEDVGVYYCQQTNRYSNPDIYNVFGGGTKLTVLGGGGGSGGGGSGGGGSGGGGSQVQLVQSGAEVKKPGSSVKVSCKASGIDFNSNYYMCWVRQAPGQGLEWMGCIYVGSHVNTYYANWAKGRVTITADESTSTAYMELSSLRSEDTAVYYCATSGSSVLYFKFWGQGTLVTVSS | 77.2 | 0.000184 | 2.39e+06 | 77.2 | 0.3
12 | Vκ3/VH1B consensus (uncapped), human IL23R specific scFv (scFv, scFv VL-linker-VH, made in E. coli; Vκ framework IV (uncapped, full consensus); also called Vκ3VH1B uncapped) scFv: DIVLTQSPATLSLSPGERATLSCQASENIYSFLAWYQQKPGQAPRLLIYSASKLAAGVPARFSGSGSGTDFTLTISSLEPEDFAVYYCQQTNRYSNPDIYNVFGQGTKVEIKRGGGGSGGGGSGGGGSGGGGSQVQLVQSGAEVKKPGASVKVSCKASGIDFNSNYYMCWVRQAPGQGLEWMGCIYVGSHVNTYYANWAKGRVTMTRDTSISTAYMELSSLRSEDTAVYYCATSGSSVLYFKFWGQGTLVTVSS | 455 | 0.000724 | 1.59e+06 | 455 | 
13 | Vκ1/VH6 consensus λ-capped, human IL23R specific scFv (scFv, scFv VL-linker-VH, made in E. coli; also called Vκ1VH6 capped) scFv: DIQMTQSPSSLSASVGDRVTITCQASENIYSFLAWYQQKPGKAPKLLIYSASKLAAGVPSRFSGSGSGTDFTLTISSLQPEDFATYYCQQTNRYSNPDIYNVFGGGTKLTVLGGGGGSGGGGSGGGGSGGGGSQVQLQQSGPGLVKPSQTLSLTCAISGIDFNSNYYMCWIRQSPGRGLEWLGCIYVGSHVNTYYANWAKGRITINPDTSKNQFSLQLNSVTPEDTAVYYCATSGSSVLYFKFWGQGTLVTVSS | 245 | 0.000349 | 1.42e+06 | 245 | 1
14 | Vκ1/VH2 consensus λ-capped, human IL23R specific scFv (scFv, scFv VL-linker-VH, made in E. coli; also called Vκ1VH2 capped) scFv: DIQMTQSPSSLSASVGDRVTITCQASENIYSFLAWYQQKPGKAPKLLIYSASKLAAGVPSRFSGSGSGTDFTLTISSLQPEDFATYYCQQTNRYSNPDIYNVFGGGTKLTVLGGGGGSGGGGSGGGGSGGGGSQVQLKESGPALVKPTQTLTLTCTFSGIDFNSNYYMCWIRQPPGKALEWLACIYVGSHVNTYYANWAKGRLTISKDTSKNQVVLTMTNMDPVDTATYYCATSGSSVLYFKFWGQGTLVTVSS | 73.1 | 0.000128 | 1.76e+06 | 73.1 | 0.3
15 | Vκ3/VH2 consensus (uncapped), human IL23R specific scFv (scFv, scFv VL-linker-VH, made in E. coli; Vκ framework IV (uncapped, full consensus); also called Vκ3VH2 uncapped) scFv: DIVLTQSPATLSLSPGERATLSCQASENIYSFLAWYQQKPGQAPRLLIYSASKLAAGVPARFSGSGSGTDFTLTISSLEPEDFAVYYCQQTNRYSNPDIYNVFGQGTKVEIKRGGGGSGGGGSGGGGSGGGGSQVQLKESGPALVKPTQTLTLTCTFSGIDFNSNYYMCWIRQPPGKALEWLACIYVGSHVNTYYANWAKGRLTISKDTSKNQVVLTMTNMDPVDTATYYCATSGSSVLYFKFWGQGTLVTVSS | 462 | 0.000363 | 786000 | 462 | 
